In US20160194355A1 (MARUHA NICHIRO, published 2016):

molecular target: dipeptidyl peptidase-IV (DPPIV) (Human, recombinant; manufactured by Biomol) (Human, UniProt P27487 39-766, limits assumed); assay: cell-based or functional assay
Sequence (P27487 39-766 limits assumed): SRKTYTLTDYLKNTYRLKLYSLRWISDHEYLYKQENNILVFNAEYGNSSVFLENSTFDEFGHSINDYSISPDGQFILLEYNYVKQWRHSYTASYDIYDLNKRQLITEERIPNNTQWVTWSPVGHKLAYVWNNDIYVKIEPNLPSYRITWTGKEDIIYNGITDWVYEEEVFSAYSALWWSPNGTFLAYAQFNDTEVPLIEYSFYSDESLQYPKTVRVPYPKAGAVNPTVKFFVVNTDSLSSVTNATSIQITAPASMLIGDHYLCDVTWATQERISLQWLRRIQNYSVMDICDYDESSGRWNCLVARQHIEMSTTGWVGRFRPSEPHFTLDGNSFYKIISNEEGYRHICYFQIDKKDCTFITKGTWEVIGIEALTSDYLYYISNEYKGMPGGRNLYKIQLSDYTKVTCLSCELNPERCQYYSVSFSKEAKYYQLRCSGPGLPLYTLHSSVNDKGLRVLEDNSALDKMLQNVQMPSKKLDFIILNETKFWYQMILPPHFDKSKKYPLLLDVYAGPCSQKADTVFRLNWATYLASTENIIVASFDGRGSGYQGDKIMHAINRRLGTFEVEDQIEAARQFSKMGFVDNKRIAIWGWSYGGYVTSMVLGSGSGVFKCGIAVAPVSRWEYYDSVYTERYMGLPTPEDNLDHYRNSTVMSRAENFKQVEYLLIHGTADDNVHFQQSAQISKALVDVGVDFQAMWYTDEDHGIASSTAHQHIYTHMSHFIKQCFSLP

Binder	IC50 Value (µM), DPPIV inhibitory activity (enzyme activity on H-Gly-Pro-AMC substrate, fluorescence) [µM]
LPL [Leu-Pro-Leu (LPL)]	82
LP [Leu-Pro (LP)]	> 100
LPF [Leu-Pro-Phe (LPF)]	88
IP [Ile-Pro (IP)]	66
IPI [Ile-Pro-Ile (IPI)]	3
IVP [Ile-Val-Pro (IVP)]	> 100
IPL [Ile-Pro-Leu (IPL)]	26
IIP [Ile-Ile-Pro (IIP)]	> 100

More lines, now with the values ahead:

IC50 Value (µM), DPPIV inhibitory activity (enzyme activity on H-Gly-Pro-AMC substrate, fluorescence) [µM]	Binder
19	VPL [Val-Pro-Leu (VPL)]
> 100	FP [Phe-Pro (FP)]
3	VPI [Val-Pro-Ile (VPI)]
> 100	VIP [Val-Ile-Pro (VIP)]
> 100	WLP [Trp-Leu-Pro (WLP)]
> 100	VLP [Val-Leu-Pro (VLP)]
> 100	WIP [Trp-Ile-Pro (WIP)]
46	LPVL [Leu-Pro-Val-Leu (LPVL)]
40	FPVG [Phe-Pro-Val-Gly (FPVG)]
